In patent US20230159620A1, “COMPOSITIONS AND METHODS OF TREATMENT FOR VASCULAR DISEASES AND THROMBOSIS” (Washington University, priority 2021, published 2023):

Target: T1, Pearl 1 (Homo sapiens, UniProt Q5VY43)
T1 construct: endogenous in cells; host or cells: freshly isolated human platelets
T1 sequence (Q5VY43 21-1037): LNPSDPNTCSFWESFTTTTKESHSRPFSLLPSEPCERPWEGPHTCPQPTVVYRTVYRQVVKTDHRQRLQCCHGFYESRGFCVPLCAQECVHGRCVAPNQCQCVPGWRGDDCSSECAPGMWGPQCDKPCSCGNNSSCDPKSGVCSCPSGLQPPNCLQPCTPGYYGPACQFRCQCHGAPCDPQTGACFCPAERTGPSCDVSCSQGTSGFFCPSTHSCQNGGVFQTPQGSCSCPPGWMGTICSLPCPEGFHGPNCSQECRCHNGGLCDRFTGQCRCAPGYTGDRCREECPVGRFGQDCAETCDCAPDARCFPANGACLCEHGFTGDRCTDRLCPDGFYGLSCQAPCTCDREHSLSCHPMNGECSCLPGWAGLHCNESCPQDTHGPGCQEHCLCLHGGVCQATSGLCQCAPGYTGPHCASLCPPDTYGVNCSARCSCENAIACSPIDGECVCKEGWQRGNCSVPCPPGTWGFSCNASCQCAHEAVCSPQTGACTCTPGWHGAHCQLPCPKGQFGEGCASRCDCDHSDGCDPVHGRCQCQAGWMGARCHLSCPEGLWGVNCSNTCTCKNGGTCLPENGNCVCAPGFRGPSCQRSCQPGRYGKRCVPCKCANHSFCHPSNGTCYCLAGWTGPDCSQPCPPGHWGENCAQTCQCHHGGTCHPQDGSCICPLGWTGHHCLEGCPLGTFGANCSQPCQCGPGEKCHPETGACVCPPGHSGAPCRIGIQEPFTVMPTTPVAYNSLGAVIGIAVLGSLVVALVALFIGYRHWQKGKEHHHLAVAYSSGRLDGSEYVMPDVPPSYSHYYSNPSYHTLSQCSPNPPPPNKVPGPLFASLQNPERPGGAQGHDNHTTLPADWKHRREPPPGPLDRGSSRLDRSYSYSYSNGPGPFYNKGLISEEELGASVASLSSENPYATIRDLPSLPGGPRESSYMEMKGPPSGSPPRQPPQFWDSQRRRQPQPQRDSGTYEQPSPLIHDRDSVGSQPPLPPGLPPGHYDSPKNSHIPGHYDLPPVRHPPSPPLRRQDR
Experiment: Pearl 1 immunoprecipitation and pTyrosine immunoblot, platelets
Type: cell-based
Settings: 15 minutes exposure, vs BSA
Experimental: Subsequently, 204, of BSA-blocked Invitrogen Protein A Dynabeads slurry was added, followed by rotation for 45 minutes. The beads were separated using magnetism and washed with RIPA buffer 4-5 times, then resuspended with reducing LDS sample buffer and analyzed by immunoblot assay. Bands for p-tyrosine and Pearl 1 were detected at ˜140 kDa.
Prior to performing signaling assays, cells were trypsinized, centrifuged, suspended in basal media, and counted using an automated hemocytometer. Cells were further diluted in basal media to an assay-dependent concentration. Cells were then incubated with gentle agitation for 60 minutes to prevent cell attachment and reduce basal signaling. PP1, Dynasore, MK-2206, and Rapamycin were diluted in DMSO and used in assay concentrations of 10 μM, 100 μM, 10 μM, and respectively, for the final 20-30 minutes of incubation in basal media. An equal volume of DMSO was used as the negative control condition. […] 1 μg Pearl 1 polyclonal antibody was added as a specific positive control. 20% growth media or 2% fetal bovine serum, labeled “Serum” in figures, was added as a non-specific positive control. The cells were centrifuged at 300G for 3 minutes with the exception of platelets, which were centrifuged at 500G for 5 minutes. […] Protein content was determined using a bicinchoninic acid assay with BSA standards (#23225, Pierce BCA Protein Assay Kit). […]

With “SVEP1: recombinant murine SVEP1 extracellular matrix protein with Myc and poly-histidine tag, expressed in 293F cells” the “phospho-tyrosine signal of Pearl 1 (140 kDa)” value was “robust phospho-tyrosine signal”.
